Blank lines part the entries; values can stand above or below the binder they belong to. Bridge positions count the residues as written; N and C are the ends. Square brackets hold non-standard residues; d marks the D form. Ends that are not written are not given here. COCH2 = acetyl group that carries the bridge; hCys = N[C@@H](CCS)C(=O)O; Orn = NCCC[C@H](N)C(=O)O; Dab = NCC[C@H](N)C(=O)O; Dap = NC[C@H](N)C(=O)O
What was measured:
human integrin αvβ5 [1] = molecular target: T1, human integrin αvβ5 (human, UniProt P06756 31-992; P18084 24-719); assay: SPR, Biacore 3000, peptide immobilised on CM5 chip, integrin 30-1000 nM flowed; grade B = dissociation constant more than 50 nM and 100 nM or less
T1 construct: soluble analyte in SPR at 30, 100, 300 and 1,000 nM in HEPES buffer with 5 mM magnesium chloride; heterodimer of an alpha and a beta chain
T1 sequence (P06756 31-992, chain 1 of 2): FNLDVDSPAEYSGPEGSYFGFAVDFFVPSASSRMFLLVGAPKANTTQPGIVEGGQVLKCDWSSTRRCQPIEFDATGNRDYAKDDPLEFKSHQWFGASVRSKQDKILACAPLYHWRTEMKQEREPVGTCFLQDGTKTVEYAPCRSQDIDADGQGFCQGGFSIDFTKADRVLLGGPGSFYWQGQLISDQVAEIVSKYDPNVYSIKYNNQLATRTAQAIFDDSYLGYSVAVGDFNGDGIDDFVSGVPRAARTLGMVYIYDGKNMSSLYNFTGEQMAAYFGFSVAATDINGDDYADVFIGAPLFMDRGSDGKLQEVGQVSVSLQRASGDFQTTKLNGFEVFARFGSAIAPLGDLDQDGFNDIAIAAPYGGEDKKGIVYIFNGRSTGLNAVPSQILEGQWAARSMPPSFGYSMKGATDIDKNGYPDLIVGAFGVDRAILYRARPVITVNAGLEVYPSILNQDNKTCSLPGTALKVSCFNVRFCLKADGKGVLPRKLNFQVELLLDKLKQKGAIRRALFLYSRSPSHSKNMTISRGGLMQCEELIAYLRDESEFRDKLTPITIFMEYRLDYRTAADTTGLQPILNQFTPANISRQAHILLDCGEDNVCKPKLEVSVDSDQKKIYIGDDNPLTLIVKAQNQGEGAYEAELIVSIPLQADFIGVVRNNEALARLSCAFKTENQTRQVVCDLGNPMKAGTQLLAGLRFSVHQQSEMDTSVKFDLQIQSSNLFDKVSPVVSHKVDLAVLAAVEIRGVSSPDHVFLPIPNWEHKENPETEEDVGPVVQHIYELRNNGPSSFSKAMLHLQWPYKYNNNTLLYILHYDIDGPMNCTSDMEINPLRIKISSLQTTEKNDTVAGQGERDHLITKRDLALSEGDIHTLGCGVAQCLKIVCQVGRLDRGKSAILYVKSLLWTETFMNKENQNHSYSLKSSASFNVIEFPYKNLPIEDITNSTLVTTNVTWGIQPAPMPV
T1 sequence (P18084 24-719, chain 2 of 2): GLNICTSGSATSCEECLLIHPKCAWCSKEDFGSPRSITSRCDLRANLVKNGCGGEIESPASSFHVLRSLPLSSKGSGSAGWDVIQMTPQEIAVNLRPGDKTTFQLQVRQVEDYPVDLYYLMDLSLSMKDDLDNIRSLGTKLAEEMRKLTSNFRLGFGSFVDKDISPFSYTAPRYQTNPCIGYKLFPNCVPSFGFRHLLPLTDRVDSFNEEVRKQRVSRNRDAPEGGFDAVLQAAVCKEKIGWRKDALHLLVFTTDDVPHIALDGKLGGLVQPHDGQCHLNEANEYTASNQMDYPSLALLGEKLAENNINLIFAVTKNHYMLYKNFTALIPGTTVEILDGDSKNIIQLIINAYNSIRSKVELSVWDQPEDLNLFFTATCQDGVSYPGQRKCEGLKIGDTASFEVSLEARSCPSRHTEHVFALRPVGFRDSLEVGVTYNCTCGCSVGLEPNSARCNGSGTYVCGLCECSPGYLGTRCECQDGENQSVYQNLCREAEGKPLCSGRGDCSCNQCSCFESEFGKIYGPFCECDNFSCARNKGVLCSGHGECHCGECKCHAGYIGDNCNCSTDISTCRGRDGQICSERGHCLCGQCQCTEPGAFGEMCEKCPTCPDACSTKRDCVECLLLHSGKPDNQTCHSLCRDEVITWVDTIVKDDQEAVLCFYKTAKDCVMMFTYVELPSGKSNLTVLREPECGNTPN
Method: (§1) However, only for the cyclic peptide 22, in which the number of lysine residues having an amino group as the immobilizing functional group was 1, the sample solution to be supplied to the sensor chip was set to 5,000 μL instead of 300 μL. Similarly, 70 μL of the mixed aqueous solution of 0.2 M EDC and 0.04 M NHS was added to another flow channel of the same sensor chip without immobilizing the sample, and then blocking treatment and washing treatment were carried out. Hereinafter, the obtained immobilization-treated sensor chip is referred to as an “immobilization-treated sensor chip A”.
(§2) After adding human integrin αvβ5 for 10 minutes at 25° C., which was diluted to 30 nM using a HEPES buffer solution to which magnesium chloride was added to 5 mM, in each flow channel of the immobilization-treated sensor chip A prepared in (1) above, the same HEPES buffer solution (containing 5 mM magnesium chloride) was allowed to flow as a running buffer for 30 minutes, and measurement was carried out with Biacore 3000.
(§3) Then, a regeneration treatment of removing human integrin αvβ5 was carried out by allowing a 0.5 M EDTA aqueous solution to flow through each flow channel for 10 minutes. Further, the above-described measurement process consisting of adding integrin for 10 minutes, allowing a running buffer to flow for 30 minutes, carrying out measurement with Biacore 3000, and carrying out regeneration treatment with 0.5 M EDTA aqueous solution was carried out in the same manner for 100 nM human integrin αvβ5, 300 nM human integrin αvβ5, and 1,000 nM human integrin αvβ5. Dissociation constant between the cyclic peptide and human integrin αvβ5 was calculated from the difference between the value measured by Biacore 3000 in the flow channel immobilized with the cyclic peptide and the value measured by Biacore 3000 in the flow channel unimmobilized with the cyclic peptide, in a case where each concentration of human integrin αvβ5 was allowed to flow, and the integrin binding property was evaluated according to the following evaluation standards. It is preferable that the evaluation result satisfies the evaluation standard A, B, or C.

human integrin αvβ5 [2] = molecular target: T1, human integrin αvβ5; assay: SPR, Biacore 3000, peptide immobilised on CM5 chip, integrin 30-1000 nM flowed; grade C = dissociation constant more than 100 nM and 200 nM or less
Method: as §1, §2
as §3, with “It is preferable that the evaluation result satisfies the evaluation standard A, B, or C.” left out

dissociation constant (human integrin αvβ5 [1]): 50 to 100 nM
Binder: A[hCys][hCys]RGDK(COCH2)FK(COCH2)KKK (thioether 2-9, 3-7) [Cyclic peptide 36]

dissociation constant (KD) (human integrin αvβ5 [1]): 50 to 100 nM
B1: Cyclic peptide 10 (peptide)
peptide: ICRGD[Orn]FCKKK
modifications: bridge N-8, 2-6; not fully specified (residue 6, N-terminus, bridges)
notes: bicyclic; all residues L; immobilised on CM5 chip through amino groups

dissociation constant (KD) (human integrin αvβ5 [2]): 100 to 200 nM
Binder: {CH2CO}-I[Dab](COCH2)RGD[hCys]F[hCys]KKK (thioether 2-6, N-8) [Cyclic peptide 2]

dissociation constant (KD) (human integrin αvβ5 [1]): 50 to 100 nM
B3: Cyclic peptide 13 (peptide)
peptide: XXRGDXFCKKK
modifications: not fully specified; thioether: I1 alpha-NH2 through acetyl to C8; thioether: Dap(acetyl)2 to Hcy6
notes: as for B1

dissociation constant (human integrin αvβ5 [1]): 50 to 100 nM
Binder: {CH2CO}-V[hCys]RGD[Orn](COCH2)F[hCys]KKK (thioether 2-6, N-8) [Cyclic peptide 41]

Further lines, the binder ahead of its results:

Binder: KKK[hCys][hCys]RGDK(COCH2)FK(COCH2)A (thioether 4-11, 5-9) [Cyclic peptide 37]
dissociation constant (human integrin αvβ5 [1]): 50 to 100 nM

B2: Cyclic peptide 7 (peptide)
peptide: {CH2CO}-I[hCys]RGD[Dab]F[hCys]KKK
modifications: thioether N-8; bridge 2-6; not fully specified (residue 6, bridges); printed as I- -RGD F-(Hcy)-KKK
dissociation constant (KD) (human integrin αvβ5 [1]): 50 to 100 nM

Binder: {CH2CO}-I[hCys]RGD[Orn](COCH2)F[hCys]KKK (thioether 2-6, N-8) [Cyclic peptide 9]
dissociation constant (KD) (human integrin αvβ5 [1]): 50 to 100 nM

B4: Cyclic peptide 19 (peptide)
peptide: {CH2CO}-I[hCys]RGD[Dab](COCH2)FCKKK
modifications: thioether 2-6 via Ac; thioether N-8; not fully specified
notes: as for B1
dissociation constant (KD) (human integrin αvβ5 [1]): 50 to 100 nM

Binder: {CH2CO}-IK(COCH2)RGD[hCys]F[hCys]KKK (thioether 2-6, N-8) [Cyclic peptide 4]
dissociation constant (KD) (human integrin αvβ5 [1]): 50 to 100 nM

Binder: {CH2CO}-I[hCys]RGDK(COCH2)FA[hCys]KKK (thioether 2-6, N-9) [Cyclic peptide 34]
dissociation constant (human integrin αvβ5 [1]): 50 to 100 nM

B5: Cyclic peptide 6 (peptide)
peptide: {CH2CO}-ICRGD[Dap](COCH2)FCKKK
modifications: thioether 2-6 via Ac; thioether N-8
notes: as for B1
dissociation constant (KD) (human integrin αvβ5 [2]): 100 to 200 nM

Binder: {CH2CO}-I[hCys]RGD[Dap](COCH2)F[hCys]KKK (thioether 2-6, N-8) [Cyclic peptide 5]
dissociation constant (KD) (human integrin αvβ5 [1]): 50 to 100 nM

Binder: {CH2CO}-I[hCys]RGDK(COCH2)FR[hCys]KKK (thioether 2-6, N-9) [Cyclic peptide 33]
dissociation constant (human integrin αvβ5 [2]): 100 to 200 nM
